Here are results for 140 substances from the supplement of paper PMC12042874.

± gives the uncertainty stated by the source.

The data set is described as follows: amyloid nucleation score (Sup35N fusion, yeast selection) (log enrichment); library NNK1; higher = more nucleation; inactive = no reads after selection. Put shortly: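 Plasmid inserts were Illumina-sequenced at input and output from psi-negative yeast expressing Sup35N fused to peptides of 20 random codons. The yeast were induced with 100 μM copper sulfate for 24 hours and grown 7 days at 30°C on medium lacking adenine and uracil, and sequences with under 100 input reads were excluded. Nucleation score is the DiMSum log enrichment of output over input reads, centred on the mode score of non-aggregating sequences.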
FTNASDYYELVLHCRGAEKE had an amyloid nucleation score of 0.523 ± 0.3.
Take SIGLC: the amyloid nucleation score amounted to 1.31 ± 0.76.
Next, SPTVERSTGIR: -0.089 ± 0.49.
In the case of NRLNTTDWYSI it was -0.342 ± 0.74; in that of WEGLQLLGS, -0.138 ± 0.91; in that of CTLVDHYWGCEGRSCARCSS, 0.233 ± 0.55.
The substance FRCLRTRSCLQWAQGLGAEA yielded an amyloid nucleation score of 0.596 ± 0.47.
YGRQG gave an amyloid nucleation score of 0.123 ± 0.49.
CPPSYLMT: the amyloid nucleation score was -0.464 ± 0.45.
Next, RPSTLCFTIIRVYKLSRSPT: 2.65 ± 0.074; IDFKGTKKLLSDRAPVGDST: 0.549 ± 1.
Next, AIYVNGCVCCISYLVPILMS: 3.61 ± 0.075.
As for LNSDCCPNSFDKHFLSFLCM, the amyloid nucleation score worked out at 0.433 ± 0.81.
In the case of LCFGGRSWSCFVKVKHLFAC it was 1.68 ± 0.51.
For YAVRYFETVVLQGIEVIPES, the amyloid nucleation score stood at 0.205 ± 0.6.
PWDYVSLSI came in with an amyloid nucleation score of -0.424 ± 0.73.
In the case of TVQWAEN, the amyloid nucleation score came to 0.292 ± 0.63.
For SGCGTGKVDVNWGLENAKAG, the amyloid nucleation score stood at 0.408 ± 0.59.
Next, ICFFGCQGGGPRLRQDRCRT: -0.53 ± 0.63; CVTDIRAWFKVGLCNSDVLQ: 3.89 ± 0.096.
In the case of WNRVWIMYGT it was 1.57 ± 0.22; in that of NINFGVVSYSVYMLL, 6.649 ± 0.054; in that of RYKNSIDSESVINRLLWDAT, 0.431 ± 0.8.
In turn, VFGVVSFLHDFNFGKAYFAV returned an amyloid nucleation score of 0.191 ± 0.4.
Next, GWFAR: -0.191 ± 0.57; KLLNRTMRTMVSVSRVM: 0.738 ± 0.72.
Regarding QVARLLSHAMWLVGKTL, the amyloid nucleation score result was “inactive”.
In the case of GKSCGHFWGRLNEGGQKLRV it was -0.772 ± 0.64.
In the case of DLAHYAW it was 0.286 ± 0.45; in that of LYCRNRCRACCKRFTFK, “inactive”.
The substance FFELSVYH registered an amyloid nucleation score of -0.174 ± 0.65.
GCSVWDCWGLRVRSVGRSDR displayed an amyloid nucleation score of 0.449 ± 0.34.
As for CPVMA, the amyloid nucleation score is -0.094 ± 0.27.
In the case of NISSIASVWVCVKVRYVSYS it was 0.432 ± 0.59; in that of SLYMT, 0.192 ± 0.34.
Next, YESCRVHVSIIYPPASGHRA: 2.9 ± 0.12; YEKSFGTYTM: -0.045 ± 0.28.
In the case of KVTMRWV it was 2.21 ± 0.27; in that of LVSDSYNSLSLQDNLALLLI, 0.261 ± 0.4.
As to IFSFNMQDN, the amyloid nucleation score is -0.363 ± 1.2.
In the case of ATCPLYEVLSCYARVKFANT it was -0.357 ± 0.33; in that of IQLYIYCNMWKVGGKEWRAW, 5.78 ± 0.087.
Next, RKASWRWMSSMSNVGWTCPN: 4.67 ± 0.12; MYFVRVSSDA: 0.351 ± 0.54; MLLWQRSGMQLLAGLSHRVR: -0.702 ± 0.99.
Next, TGSLLTSTWS: -0.474 ± 0.78; YSECQLSRARD: “inactive”; YVCIGFYSSPVLGIDFLGNK: 3.53 ± 0.11.
Substance DRMKTQGFCQTFNFWLGYYI yielded an amyloid nucleation score of 6.97 ± 0.075.
Regarding FWLFSGLCNRFNTGYDFLKS, the amyloid nucleation score worked out at 1.12 ± 0.48.
As for LSRTSKSPFGGEFLERHIYI, the amyloid nucleation score was -0.42 ± 1.
In the case of VFLSADDVSGPRVDAVSGYS, the amyloid nucleation score is 0.713 ± 0.5.
Next, IWYYSSAQLDCFPYNSTMQE: 0.8 ± 0.93; NMLVRKAG: -0.036 ± 0.73.
Next, RKRRVSSLPEMGHSGSEYIG: 0.412 ± 0.67; SSSFTSNSFLLLLWSYKDMF: 1.16 ± 0.21; NSEMCWFFNMISSTLAHLLV: 1.75 ± 0.31.
Next, CVMFLGFVYVFSSLYPT: -0.981 ± 0.63; YSFGVSTWLI: -0.396 ± 0.74; LRCKMYSMWKTSYFTVMLGG: -0.261 ± 0.44.
WAYYCYP had an amyloid nucleation score of -2.01 ± 2.4.
IINRNYI came in with an amyloid nucleation score of 1.1 ± 0.84.
Next, CCDVHGCVGNMLSFTGILLF: 3.54 ± 0.076; KTLDLHISFPQDKLFR: -0.382 ± 0.45.
Next, DLSWSGTFSAGHGNMNFTKS: 2.53 ± 0.15.
The substance TVVNSVGYYAPKLPSACLGN displayed an amyloid nucleation score of 0.638 ± 0.31.
CTEKMIFTDLHRLRVVYKYT gave an amyloid nucleation score of -0.59 ± 1.6.
In the case of SWIHVHHL it was 0.691 ± 0.7; in that of GLSWYCGHLAKR, 1.48 ± 0.49.
In the case of RYWSRQRLTDVYVFRLDMSR it was -2.07 ± 2.4.
Consider FKSYWGSTWRSNSWVGDMRG, for which the amyloid nucleation score was -0.225 ± 0.46.
Take YWDKMTLTKNFKWLDLLGVG: the amyloid nucleation score entry was “inactive”.
In the case of VLKGNKRRVLNAWVAYVLRS it was 0.273 ± 0.35; in that of SRQRSYRDWVATFTF, -0.339 ± 0.52.
Next, KWEYCCLFMLAHVEDHLKGF: 0.59 ± 0.34.
In the case of YARVGKRNGSRNPYFINWGR it was -0.733 ± 1.3; in that of YRCCFLKNNPAWVQFSLRLR, -0.436 ± 0.36.
IVTKGGLNNVCAVYLCYVGS gave an amyloid nucleation score of 6.46 ± 0.065.
As for LRAHGAYRYQWEACCHNLG, the amyloid nucleation score was -0.138 ± 0.36.
Regarding VSEIFFWFKSWRRRLRLRMG, the amyloid nucleation score result is “inactive”.
Next, VVIGILSEYATKTNWFCSIY: 1.08 ± 0.2; NHVLVVGISNLSSCHWMPNF: 3.14 ± 0.12; DTLPRFRSRNSIVRNLSKNG: “inactive”.
The substance IRSLITMVGTGLGPLAR returned an amyloid nucleation score of 0.876 ± 0.4.
Next, EDRYGIVC: -0.25 ± 0.74.
Next, TPAFTIFSWAIGEDYLFVEM: 0.777 ± 0.9.
Next, AIFNTGNMWDTLRRHSGVHV: -0.059 ± 1.2; SGLIKVGISLRLHYGLYLRY: 0.684 ± 0.88; DWGPTNTFGPYQINNLTCSS: -1.91 ± 1.9.
With VYRDLVDAYVTDYMCWGAPG, the amyloid nucleation score entry was “inactive”.
Next, RHTGPIMLSWDAKGRGK: 0.622 ± 0.44; VVQAVIR: -1.01 ± 1.7.
Next, ISFLFMCYLWQGNNS: 6.24 ± 0.066; FFLWGRW: -0.341 ± 0.43; AYVDAL: 1.53 ± 0.48.
AVSIWSPRIGVCETFQLDVV showed an amyloid nucleation score of -0.573 ± 0.57.
Take NHCFLVRWNISKSSRDVSWC: the amyloid nucleation score amounted to 0.142 ± 0.47.
Consider IADPNRFFTLLNLPMQCREA, for which the amyloid nucleation score result is “inactive”.
In turn, NTKSSVSYYFFMGIIFFSEI registered an amyloid nucleation score of 0.355 ± 0.32.
In the case of NRRDDNQCVSWIGVKAKVLS it was 0.564 ± 0.43.
Substance TCIIFIYNSWSSLQPFMSGM displayed an amyloid nucleation score of 2.65 ± 0.21.
As for DEDHFYTSRML, the amyloid nucleation score is 0.639 ± 1.1.
Next, ELIHILDLVVTPGRFGRPVN: 2.58 ± 0.36; ARRRF: -0.345 ± 1.7.
VILLILNYYSHWDVLLK: the amyloid nucleation score is -0.111 ± 0.4.
In the case of SYHSMA, the amyloid nucleation score entry is “inactive”.
Next, MFTNLQIWWDSMACYFWDVF: 0.923 ± 0.48; YKWLLAGGNTKCSKVRNAYW: -0.356 ± 0.39; RRCCNVERGSAKVALTV: -0.153 ± 1.3.
Substance SYRIMPLMCILNCLFNCIYI registered an amyloid nucleation score of 4.8 ± 0.059.
In the case of WIILFWHYFSKYFQPLIGRS it was “inactive”; in that of TEFFGVGLRMKSNGVWWISG, -0.65 ± 1.4; in that of LFYCRALRYFASHLDASNMH, -1.09 ± 0.84.
Regarding RIRTIPFAPRNESPRCIGKF, the amyloid nucleation score was -1.5 ± 0.86.
Next, KCFSGYWVLARLRVKFLRVG: -0.275 ± 0.53.
In the case of CHLVSSTSAFA it was 1.01 ± 0.56.
For the substance FHLVRGCIFITCKYVGRGIV, the amyloid nucleation score was found to be 1.32 ± 0.57.
The substance QFKFINVDEAHT had an amyloid nucleation score of 0.297 ± 1.2.
As for LMTPEKVNEGATDRLRLFRN, the amyloid nucleation score is -0.323 ± 0.68.
In the case of FDRMNCALGVPLWDALKDGS it was 3.4 ± 0.14; in that of KGTGRLIRLASAWAGMGMHL, -0.332 ± 1.1; in that of TTIRYNVLRAPMLCIIILMN, -0.607 ± 0.58.
As to RDSLESTVGVKMGNASGVCR, the amyloid nucleation score was -0.818 ± 1.6.
Next, SFLSVFAMFYVQLPCHNMVS: -0.15 ± 0.64; NVVSYFHMAFGWCFNLW: 1.94 ± 0.26; VNVFYLMFQNIIIQVFLCVF: “inactive”.
As for TKNSLGHNMLIDWGSCVGGC, the amyloid nucleation score amounted to 1.23 ± 0.31.
In the case of ILEVCRHRVIIIRNYLSYCA it was 2.8 ± 0.24; in that of YFSKICRSLFDM, 0.906 ± 1.1; in that of CVTAVIRDGWGWNYCCRDHR, “inactive”.
SWVWCYWILSWIREFLLRQG showed an amyloid nucleation score of 0.447 ± 0.42.
Take YVIKKWTTCVLDFWHHFSFR: the amyloid nucleation score was 0.583 ± 0.48.
Substance ILTDTSMGTSAVHRARQTLK returned an amyloid nucleation score of 0.066 ± 0.48.
In turn, QVNRSVDFPSRFIKSY yielded an amyloid nucleation score of -0.687 ± 1.4.
Next, VPHLNGCISFWNVSVGYKVP: 5.44 ± 0.077; TDRMGIQCGRVSLRSRYIRC: -0.198 ± 0.87.
Next, VGMYGSVSFMS: -1.02 ± 0.89; DRYCGYWNGTSSCMICGRVV: 1.1 ± 0.69.
For the substance GVGRRMSMWYVCDAGWEAWR, the amyloid nucleation score is 3.16 ± 0.094.
In the case of HVRSWI it was 1.76 ± 0.76.
